Two molecules from US20240350646A1, “METHODS AND COMPOSITIONS FOR DELIVERY TO AND ACROSS THE BLOOD BRAIN BARRIER” (NUtech Ventures, priority 2021, published 2024) can be followed below.

One assay deals with T1, mouse claudin-1 (Mus musculus, UniProt O88551).
T1 construct: These cells were subjected to ethanol (50 mM) treatment to induce claudin-1 expression; endogenous in cells; host or cells: bEnd.3 mouse brain microvascular endothelial cells
T1 sequence (O88551 1-211): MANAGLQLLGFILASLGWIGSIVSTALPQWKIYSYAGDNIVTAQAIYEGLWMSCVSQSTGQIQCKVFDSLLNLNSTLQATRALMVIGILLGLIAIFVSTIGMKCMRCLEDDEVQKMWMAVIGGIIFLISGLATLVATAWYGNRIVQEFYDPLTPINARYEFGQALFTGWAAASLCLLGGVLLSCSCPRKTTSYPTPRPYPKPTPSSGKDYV
Put plainly: In vitro immunofluorescence of NP binding in bEnd.3 cells (control and ethanol induced). In kind it is cell-based. As to conditions: 4 hrs. How it is done: (§1) bEnd.3 cells were cultured according to the ATCC culture conditions in DMEM. These cells were subjected to ethanol (50 mM) treatment to induce claudin-1 expression and incubated with C1C2-NP for 4 hrs. For determining attachment of the C1C2-NP to human claudin-1, human claudin-1 encoded PCMV script plasmid was overexpressed in bEnd.3 cells and then incubated with C1C2-NP for 4 hrs.

For another assay, the target named is T2, human claudin-1 (Homo sapiens, UniProt O95832).
T2 construct: made in house
T2 sequence (O95832 1-211): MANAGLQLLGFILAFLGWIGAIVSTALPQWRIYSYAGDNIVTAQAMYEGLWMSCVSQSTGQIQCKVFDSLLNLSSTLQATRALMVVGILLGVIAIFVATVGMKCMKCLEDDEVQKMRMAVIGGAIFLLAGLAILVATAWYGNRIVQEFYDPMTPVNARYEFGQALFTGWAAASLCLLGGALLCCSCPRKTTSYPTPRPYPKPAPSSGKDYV
Put plainly: In vitro immunofluorescence of NP binding in bEnd.3 cells transfected with human claudin-1 plasmid. Type of assay: cell-based. As to conditions: cells transfected to express human claudin-1; 4 hrs. How it is done: as §1

The next assay deals with T3, human claudin-9 (human, UniProt O95484 1-217, limits assumed).
T3 sequence (looked up): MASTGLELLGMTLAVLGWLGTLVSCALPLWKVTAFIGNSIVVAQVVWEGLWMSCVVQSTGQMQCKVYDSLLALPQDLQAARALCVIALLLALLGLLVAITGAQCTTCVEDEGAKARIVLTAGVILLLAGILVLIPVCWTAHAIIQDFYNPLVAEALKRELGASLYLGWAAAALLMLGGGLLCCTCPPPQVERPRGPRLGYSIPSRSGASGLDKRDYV
The assay can be described thus: MST, sigmoidal dose-response fit (GraphPad Prism) of the FIG. 10A data, M is the unit of the concentration axis of panel A; fit did not converge [panel B]. How it is done:
(§2) FIG. 10A is a graph showing binding of human claudins 3, 4 and 9 to C1C2-NPs using microscale thermophoresis. […] FIG. 10C is a graph showing the binding of human claudins 4 and 9 to control NPs monitored using microscale thermophoresis. […] Data fitting for human claudins 3, 4 and 9 were performed using Graph Pad Prism.
(§3) Human claudin-1 was expressed and purified as reported previously (Vecchio & Stroud, 2019, PNAS USA, 116:17817-24). MST measurements were performed using a Monolith instrument (NanoTemper Technologies). For experiments with human claudin-1, the assay buffer contained 10 mM Tris HCl, pH 8.0, 100 mM NaCl, 4% glycerol, and 0.04% n-Dodecyl-β-D-Maltopyranoside (β-DDM). NPs and peptides were labeled with AF647 prior to MST analysis as described above. For the binding experiments, the concentration of human claudin-1 was varied from 2.2-73,500 nM and the AF647-labeled C1C2-NP was fixed at 70 nM, while the AF647 labeled NPs and AF647 labeled C1C2 peptide were fixed at 1 and 0.3 μM, respectively. Binding of the AF647 labeled C1C2-NP to human claudin-3, -4, and -9 were tested using 0.4-14000 nM, 0.8-28000 nM, and 0.6-20000 nM, respectively; with the AF647 labeled C1C2-NP fixed at 70 nM. This assay buffer was similar, except β-DDM was replaced with 0.1% n-Undecyl-β-D-Maltopyranoside (beta-UDM).

Another assay has as its target T4, human claudin-4 (human, UniProt O14493 1-209, limits assumed).
T4 sequence (looked up): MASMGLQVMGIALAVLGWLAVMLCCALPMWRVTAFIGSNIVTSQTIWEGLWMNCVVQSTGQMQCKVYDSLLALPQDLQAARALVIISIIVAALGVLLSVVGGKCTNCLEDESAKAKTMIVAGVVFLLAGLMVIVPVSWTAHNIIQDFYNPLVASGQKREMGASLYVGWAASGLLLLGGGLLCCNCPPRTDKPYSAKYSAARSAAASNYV
Put plainly: MST, sigmoidal dose-response fit (GraphPad Prism) of the FIG. 10A data, M is the unit of the concentration axis of panel A; confidence interval undefined [panel B]. How it is done: as §2, §3

In another assay the target is T5, human claudin-3 (human, UniProt O15551 1-220, limits assumed).
T5 sequence (looked up): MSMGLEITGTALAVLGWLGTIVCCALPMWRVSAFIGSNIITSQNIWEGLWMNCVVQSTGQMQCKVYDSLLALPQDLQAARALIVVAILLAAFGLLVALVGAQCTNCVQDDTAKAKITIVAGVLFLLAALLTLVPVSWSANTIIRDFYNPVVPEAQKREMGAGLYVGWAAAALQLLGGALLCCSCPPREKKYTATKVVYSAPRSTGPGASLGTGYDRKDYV
The assay can be described thus: MST, sigmoidal dose-response fit (GraphPad Prism) of the FIG. 10A data, M is the unit of the concentration axis of panel A; fit without amplitude, confidence interval undefined [panel B]. How it is done:
as §2, §3

In the case of “C1C2-NP: PEG diacid coated ultrasmall Gd NP conjugated with C1C2 peptide SSVSQSTGQIQSKVDSLLNLNSTQATR (SEQ ID NO: 6); claudin-1 targeted (Ac-SSVSQSTGQIQSKVDSLLNLNSTQATR-NH2; also: conjugated to PEG diacid coated ultrasmall Gd nanoparticle)”, the “Binding to bEnd.3 cells” value with mouse claudin-1 (claudin-1 induced by ethanol (50 mM)) is listed as “much higher binding”; with mouse claudin-1 (control cells, low claudin-1 expression) it was “no binding”; with human claudin-1 it was “High NP binding”.

B1: C1C2-NP (C1C2 peptide conjugated to PEG diacid coated ultrasmall Gd nanoparticles) (peptide)
peptide: Ac-SSVSQSTGQIQSKVDSLLNLNSTQATR-NH2
modifications: not fully specified; also: conjugated by EDC-NHS chemistry to PEG diacid on Gd oxide nanoparticle surface (19 peptides per 3.5 nm particle)
notes: The protein part is the C1C2 peptide; the core is not a protein; also called C1C2-NPs; C1C2 NPs
B1: the EC50 was found to be 218 mM with human claudin-9, 20.1 µM with human claudin-4 and 88.1 nM with human claudin-3.
